This is an account of results in paper PMC10700544.

Several values for one entry are separate records, joined by “and”; a condition that tells them apart may be missing. Equal entries are not always repeated.

For test [1], the target named is His-tagged RNase J K649A (pET28a+) (Helicobacter pylori) (UniProt P56185). Nature of the test: AUC; sedimentation velocity of His-tagged purified proteins, alone or mixed; 25 mM Tris-HCl pH 8, 300 mM NaCl, 0.5 mM TCEP; 20 °C; 230 nm; c(s) analysis with Sedfit.
Test [2] addresses His-tagged RNase J K649Q (pET28a+) (Helicobacter pylori) (UniProt P56185). Described as above.
Test [3] concerns the target His-tagged RNase J K649R (pET28a+) (Helicobacter pylori) (UniProt P56185). Described as above.
Test [4] has as its target His-tagged RNase J wild type (pET28a+) (Helicobacter pylori) (UniProt P56185). Described as above.
In test [5] the target is His-tagged RNase J K649A (pET28a+) (Helicobacter pylori) (UniProt P56185).
Test [6] has as its target His-tagged RhpA (pET28a+) (Helicobacter pylori) (UniProt O25029). Nature of the test: AUC; sedimentation velocity of His-tagged purified proteins, alone or mixed; 25 mM Tris-HCl pH 8, 300 mM NaCl, 0.5 mM TCEP; 20 °C; 230 nm; c(s) analysis with Sedfit.
In test [7] the target is RhpA with C-terminal Strep-tag, from pExp-MBP (Helicobacter pylori) (UniProt O25029). Nature of the test: mass photometry; Refeyn TwoMP; 20 mM sodium phosphate pH 7.2, 300 mM NaCl; final concentration of 50 nM.
Test [8] has as its target full-length RNase J (H. pylori strain B128) with C-terminal 8xHis-tag, from pExp-xMBP-CHis (Helicobacter pylori strain B128) (UniProt P56185). The test is described as follows: cryo-EM structure; mixture of RNase J (1 µM) and RhpA (2 µM) in 20 mM sodium phosphate pH 7.2, 500 mM NaCl, 0.5 mM TCEP; Quantifoil R1.2/1.3 grids, 200 kV Talos Arctica.
Test [9] shares this target. Nature of the test: mass photometry; Refeyn TwoMP; 20 mM sodium phosphate pH 7.2, 300 mM NaCl; final concentration of 50 nM.

As usually defined, the stoichiometry N is the number of molecules, sites or subunits per partner or assembly. The substance “His-tagged RNase J K649A (pET28a+) (from UniProt P56185 1-689) (enzyme)” showed a stoichiometry N in test [1] of 4. Take “His-tagged RNase J K649Q (pET28a+) (from UniProt P56185 1-689) (enzyme)”: the stoichiometry N in test [2] was 4 and 2. Turning to “His-tagged RNase J K649R (pET28a+) (from UniProt P56185 1-689) (enzyme)”, the stoichiometry N in test [3] is 4 and 2. Regarding “His-tagged RNase J wild type (pET28a+) (from UniProt P56185 1-689) (enzyme)”, in [4], the stoichiometry N was 2 and 4.

With “His-tagged RhpA (pET28a+) (from UniProt O25029 1-492) (enzyme)”, the half-life of the structured RNA substrate with the complex between RhpA and the RNase J K649A variant (value of the text, differs from the table) in test [5] turned out to be 6.7 min. This substance returned a stoichiometry N in [6] of 2. In test [7], “RhpA with C-terminal Strep-tag, from pExp-MBP (from UniProt O25029 1-492) (enzyme)” showed a stoichiometry N of 2. Consider “full-length RNase J (H. pylori strain B128) with C-terminal 8xHis-tag, from pExp-xMBP-CHis (from UniProt P56185 1-689) (enzyme)”, for which the stoichiometry N in [8] and in test [9] was 4 throughout.
